We go through 1 molecule from patent publication US7109167.

No end group written: not given here.

Assay [1] has as its target endothelial cell receptor for TKPPR on human aortic endothelial cells (HAEC). Briefly: 5% BRU-114 bubbles on HAEC, static.
Assay [2] deals with KB cells (human epidermoid carcinoma cell line), cell surface. Briefly: 5% BRU-114 bubbles on KB cells, static.
The target in assay [3] is endothelial cell receptor for TKPPR on human aortic endothelial cells (HAEC). Briefly: 5% BRU-114 bubbles on HAEC, static, no competitor.
In assay [4] the target is receptor for TKPPR on rabbit aortic endothelial cells (RAEC). In words: 5% BRU-114 bubbles on RAEC, static, no competitor.
Assay [5] addresses endothelial cell receptor for TKPPR on human aortic endothelial cells (HAEC). Briefly: 1% BRU-114 bubbles on HAEC, static, no competitor.
The target is the same in assay [6]. Briefly: 2% BRU-114 bubbles on HAEC, static, no competitor.
The target is the same in assay [7]. In words: 10% BRU-114 bubbles on HAEC, static, no competitor.
Assay [8] shares this target. In words: microbubbles with 1% BRU-114 on HAEC, static, no competitor.
Assay [9] shares this target. In words: microbubbles with 5% BRU-114 on HAEC, static, no competitor.
For assay [10] the target is unchanged. In words: 5% BRU-114 bubbles on HAEC, static, no competitor (control).
Assay [11] shares this target. Briefly: microbubbles with 5% BRU-114 on HAEC, static inverted culture.
For assay [12] the target is unchanged. In words: microbubbles on HAEC, static, manual count, 5% against 1% BRU-114.
The target is the same in assay [13]. In words: 1% BRU-114 bubbles on HAEC, static, no competitor, average of duplicates.
Assay [14] has the same target. Briefly: 2% BRU-114 bubbles on HAEC, static, no competitor, average of duplicates.
The target is the same in assay [15]. Briefly: 5% BRU-114 bubbles on HAEC, static, no competitor (same control as the 20th table).
For assay [16] the target is unchanged. Briefly: 5% BRU-114 bubbles on HAEC, static, cells pretreated 4 h with 0 ng/mL TNFα.
Assay [17] shares this target. In words: 5% BRU-114 bubbles on HAEC, static, cells pretreated 4 h with 1 ng/mL TNFα.
Assay [18] shares this target. Briefly: 5% BRU-114 bubbles on HAEC, static, cells pretreated 4 h with 5 ng/mL TNFα.
The target is the same in assay [19]. Briefly: 5% BRU-114 bubbles on HAEC, static, cells pretreated 4 h with 10 ng/mL TNFα.

B1: DPPE-Glu-GTKPPR (BRU-114) in gas-filled microbubbles (peptide)
peptide: GTKPPR-OH
modifications: not fully specified (N-terminus); also: built into phospholipid gas-filled microbubbles
In turn, B1 registered an HAEC bubble binding in assay [1] of 1120 bubbles. In assay [2], this molecule displayed a KB cell bubble binding of 56 bubbles. The molecule also registered a Bubbles Bound-5% in assay [3] of 2780 bubbles. For the same molecule, the HAEC bubbles bound in [3] came out at 1420 bubbles. The molecule further gave an RAEC bubbles bound in [4] of 751 bubbles. For the same molecule, the Bubbles Bound-1% in assay [5] came out at 1640 bubbles. Further, in assay [6], the Bubbles Bound % is 100 % of control. The molecule also displayed a Bubbles Bound-10% in assay [7] of 1860 bubbles. Moreover, the figures for the bubbles bound, no competition in [8] and in [9] were 555 bubbles and 726 bubbles, respectively. Further, the Bubbles Bound was 1250 bubbles in [10]; 7050 bubbles in assay [11]; 737 bubbles in assay [13]; 953 bubbles in assay [14]; 1250 bubbles in [15]. Further, the % more bubbles bound than with the 1% composition in assay [12] came out at 31%. Further, the TKPPR-Bubbles bound in assay [16] came out at 950 bubbles; in [17] it was 1520 bubbles; in assay [18], 1360 bubbles; in assay [19] it was 1020 bubbles.
